From patent publication US5252705

target: hPTH (1-34) (human) (UniProt P01270); design: unit not given beside the values

IC50: 50% inhibition of cAMP production in cultured mouse osteoblast MC3T3-E1 cells	Substance
0.007	Compound 1 (Ser-Glu-Ile-Gln-Leu-Met-His-Asn-Leu-Gly-Lys-Ser-Ile-Gln-Asp-Leu-Arg-Arg-Arg-Phe-Phe-Leu-His-His-Leu-Ile-Ala-Glu-Ile-His-Thr-Ala-NH2) (peptide)
1	[Tyr^34]-hPTH (3-34)-NH2 (from UniProt P01270) (peptide)
0.015	Compound 3 (Ile-Gln-Leu-Met-His-Asn-Leu-Gly-Lys-Ser-Ile-Gln-Asp-Leu-Arg-Arg-Arg-Phe-Phe-Leu-His-His-Leu-Ile-Ala-Glu-Ile-His-Thr-Ala-NH2) (peptide)
